Here are results for 9 molecules from patent US20170360893A1 (Merck Sharp & Dohme, published 2017).

*1 amine or outer side, *2 acyl side, *3 side chain or, on linkers, in order; H or OH if unused. Where no end group is shown, it is not given here. Side-chain parts run from the residue outwards. [ ]: non-standard residue; d: D form. The star is where a group is joined. γGlu = O=C(O)[C@H](CCC(=O)[*:2])N[*:1]; Palmitoyl = CCCCCCCCCCCCCCCC(=O)*

Sequences and labels used below:
B1: Co-agonist Peptide 11 (peptide)
peptide: H[dS]QGTFTSDK([γGlu-γGlu-Palmitoyl])SLYLDERAAQDFVQWLLDT-NH2
modifications: N-terminus assumed
SMILES: CCCCCCCCCCCCCCCC(=O)N[C@@H](CCC(=O)N[C@@H](CCC(=O)NCCCC[C@H](NC(=O)[C@H](CC(=O)O)NC(=O)[C@H](CO)NC(=O)[C@@H](NC(=O)[C@H](Cc1ccccc1)NC(=O)[C@@H](NC(=O)CNC(=O)[C@H](CCC(N)=O)NC(=O)[C@@H](CO)NC(=O)[C@@H](N)Cc1c[nH]cn1)[C@@H](C)O)[C@@H](C)O)C(=O)N[C@@H](CO)C(=O)N[C@@H](CC(C)C)C(=O)N[C@@H](Cc1ccc(O)cc1)C(=O)N[C@@H](CC(C)C)C(=O)N[C@@H](CC(=O)O)C(=O)N[C@@H](CCC(=O)O)C(=O)N[C@@H](CCCNC(=N)N)C(=O)N[C@@H](C)C(=O)N[C@@H](C)C(=O)N[C@@H](CCC(N)=O)C(=O)N[C@@H](CC(=O)O)C(=O)N[C@@H](Cc1ccccc1)C(=O)N[C@H](C(=O)N[C@@H](CCC(N)=O)C(=O)N[C@@H](Cc1c[nH]c2ccccc12)C(=O)N[C@@H](CC(C)C)C(=O)N[C@@H](CC(C)C)C(=O)N[C@@H](CC(=O)O)C(=O)N[C@H](C(N)=O)[C@@H](C)O)C(C)C)C(=O)O)C(=O)O
B2: Co-agonist Peptide 8 (peptide)
peptide: H[dS]QGTFTSDK([γGlu-γGlu-Palmitoyl])SKYLEARAAQDFVQWLLDT-NH2
modifications: N-terminus assumed
SMILES: CCCCCCCCCCCCCCCC(=O)N[C@@H](CCC(=O)N[C@@H](CCC(=O)NCCCC[C@H](NC(=O)[C@H](CC(=O)O)NC(=O)[C@H](CO)NC(=O)[C@@H](NC(=O)[C@H](Cc1ccccc1)NC(=O)[C@@H](NC(=O)CNC(=O)[C@H](CCC(N)=O)NC(=O)[C@@H](CO)NC(=O)[C@@H](N)Cc1c[nH]cn1)[C@@H](C)O)[C@@H](C)O)C(=O)N[C@@H](CO)C(=O)N[C@@H](CCCCN)C(=O)N[C@@H](Cc1ccc(O)cc1)C(=O)N[C@@H](CC(C)C)C(=O)N[C@@H](CCC(=O)O)C(=O)N[C@@H](C)C(=O)N[C@@H](CCCNC(=N)N)C(=O)N[C@@H](C)C(=O)N[C@@H](C)C(=O)N[C@@H](CCC(N)=O)C(=O)N[C@@H](CC(=O)O)C(=O)N[C@@H](Cc1ccccc1)C(=O)N[C@H](C(=O)N[C@@H](CCC(N)=O)C(=O)N[C@@H](Cc1c[nH]c2ccccc12)C(=O)N[C@@H](CC(C)C)C(=O)N[C@@H](CC(C)C)C(=O)N[C@@H](CC(=O)O)C(=O)N[C@H](C(N)=O)[C@@H](C)O)C(C)C)C(=O)O)C(=O)O
B3: Co-agonist Peptide 1 (peptide)
peptide: H[dS]QGTFTSDK([γGlu-Palmitoyl])SKYLDARAAQDFVQWLLDT-NH2
modifications: N-terminus assumed
SMILES: CCCCCCCCCCCCCCCC(=O)N[C@@H](CCC(=O)NCCCC[C@H](NC(=O)[C@H](CC(=O)O)NC(=O)[C@H](CO)NC(=O)[C@@H](NC(=O)[C@H](Cc1ccccc1)NC(=O)[C@@H](NC(=O)CNC(=O)[C@H](CCC(N)=O)NC(=O)[C@@H](CO)NC(=O)[C@@H](N)Cc1c[nH]cn1)[C@@H](C)O)[C@@H](C)O)C(=O)N[C@@H](CO)C(=O)N[C@@H](CCCCN)C(=O)N[C@@H](Cc1ccc(O)cc1)C(=O)N[C@@H](CC(C)C)C(=O)N[C@@H](CC(=O)O)C(=O)N[C@@H](C)C(=O)N[C@@H](CCCNC(=N)N)C(=O)N[C@@H](C)C(=O)N[C@@H](C)C(=O)N[C@@H](CCC(N)=O)C(=O)N[C@@H](CC(=O)O)C(=O)N[C@@H](Cc1ccccc1)C(=O)N[C@H](C(=O)N[C@@H](CCC(N)=O)C(=O)N[C@@H](Cc1c[nH]c2ccccc12)C(=O)N[C@@H](CC(C)C)C(=O)N[C@@H](CC(C)C)C(=O)N[C@@H](CC(=O)O)C(=O)N[C@H](C(N)=O)[C@@H](C)O)C(C)C)C(=O)O
B4: Co-agonist Peptide 5 (peptide)
peptide: H[dS]QGTFTSDK([γGlu-γGlu-Palmitoyl])SKYLDARAAQDFVQWLLDT-NH2
modifications: N-terminus assumed
SMILES: CCCCCCCCCCCCCCCC(=O)N[C@@H](CCC(=O)N[C@@H](CCC(=O)NCCCC[C@H](NC(=O)[C@H](CC(=O)O)NC(=O)[C@H](CO)NC(=O)[C@@H](NC(=O)[C@H](Cc1ccccc1)NC(=O)[C@@H](NC(=O)CNC(=O)[C@H](CCC(N)=O)NC(=O)[C@@H](CO)NC(=O)[C@@H](N)Cc1c[nH]cn1)[C@@H](C)O)[C@@H](C)O)C(=O)N[C@@H](CO)C(=O)N[C@@H](CCCCN)C(=O)N[C@@H](Cc1ccc(O)cc1)C(=O)N[C@@H](CC(C)C)C(=O)N[C@@H](CC(=O)O)C(=O)N[C@@H](C)C(=O)N[C@@H](CCCNC(=N)N)C(=O)N[C@@H](C)C(=O)N[C@@H](C)C(=O)N[C@@H](CCC(N)=O)C(=O)N[C@@H](CC(=O)O)C(=O)N[C@@H](Cc1ccccc1)C(=O)N[C@H](C(=O)N[C@@H](CCC(N)=O)C(=O)N[C@@H](Cc1c[nH]c2ccccc12)C(=O)N[C@@H](CC(C)C)C(=O)N[C@@H](CC(C)C)C(=O)N[C@@H](CC(=O)O)C(=O)N[C@H](C(N)=O)[C@@H](C)O)C(C)C)C(=O)O)C(=O)O
B5: Co-agonist Peptide 9 (peptide)
peptide: HXQGTXTSDKSKYLDERAAQDFVQWLLDT
modifications: X2 = D-Ser; X6 = p-fluoro phenylalanine (pFF); K10 conjugated to γEγEC16; C-terminal amide
B6: Co-agonist Peptide 12 (peptide)
peptide: HXQGTFTSDXSKYLDARAAQDFVQWLLDT
modifications: X2 = D-Ser; X10 = para-aminomethyl phenylalanine (pAF) conjugated to γEγEC16; C-terminal amide
B7: Co-agonist Peptide 10 (peptide)
peptide: HXQGTFTSDKSKYLDERAAQDFVQWLXDT
modifications: X2 = D-Ser; K10 conjugated to γEγEC16; X27 = methionine sulfone; C-terminal amide

human glucagon receptor, sequence (P47871 26-477): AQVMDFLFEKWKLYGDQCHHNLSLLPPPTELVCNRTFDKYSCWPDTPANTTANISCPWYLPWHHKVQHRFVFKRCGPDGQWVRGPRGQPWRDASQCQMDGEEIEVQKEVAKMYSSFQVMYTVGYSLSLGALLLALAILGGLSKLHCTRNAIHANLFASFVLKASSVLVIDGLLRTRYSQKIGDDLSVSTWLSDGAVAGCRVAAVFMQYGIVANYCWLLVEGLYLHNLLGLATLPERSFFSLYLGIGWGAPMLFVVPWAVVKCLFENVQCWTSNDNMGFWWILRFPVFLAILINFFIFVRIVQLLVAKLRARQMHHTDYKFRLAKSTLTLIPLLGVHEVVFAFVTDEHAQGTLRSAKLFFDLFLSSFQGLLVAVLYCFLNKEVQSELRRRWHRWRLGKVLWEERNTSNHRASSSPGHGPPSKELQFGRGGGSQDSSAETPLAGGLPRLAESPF

The first experiment addresses human glucagon receptor (human, UniProt P47871 26-477). In words: cell-based or functional assay.
Take B1: the “GCGR EC50 (nM) human; cAMP production (HitHunter cAMP XS) in cells expressing human GCGR, 20% human serum” value (“GCGR EC50 (nM) human … 20% human serum” below) turned out to be 0.06 nM.
Consider B2, for which the “GCGR EC50 (nM) human … 20% human serum” value was 0.02 nM.
Turning to B3, the “GCGR EC50 (nM) human … 20% human serum” value stood at 0.042 nM.
Regarding HXQGTFTSDKSKYLDERAAQDFVQWLLDT (X2 = D-Ser; K10 conjugated to γEγEC16; C-terminal amide) [Comparator Co-agonist Peptide 6], the “GCGR EC50 (nM) human … 20% human serum” value was 0.009 nM.
For B4, the “GCGR EC50 (nM) human … 20% human serum” value stood at 0.03 nM.
Same read-out and setting: the figure for B5 is 0.05 nM.
With B6, the “GCGR EC50 (nM) human … 20% human serum” value amounted to 0.05 nM.
On the same count and under the same terms, as for Ac-HAQGTFTSDK([γGlu-γGlu-C16])SKYLDERAAQDFVQWLLDT-NH2 [Co-agonist Peptide 7], the figure is 0.07 nM.
B7: the “GCGR EC50 (nM) human … 20% human serum” value was 0.02 nM.

The target in another experiment is human glucagon-like peptide 1 receptor (human, UniProt P43220 24-463). The experiment can be described thus: cell-based or functional assay.
On to B1, for which the “GLPR1 EC50 (nM) human; cAMP production (HitHunter cAMP XS) in cells expressing human GLP-1R, 20% human serum” value was found to be 0.06 nM.
Same read-out and setting: the figure for B2 is 0.02 nM; for B3 it is 0.048 nM.
Still for that read-out and setting: as for HXQGTFTSDKSKYLDERAAQDFVQWLLDT (X2 = D-Ser; K10 conjugated to γEγEC16; C-terminal amide) [Comparator Co-agonist Peptide 6], the figure is 0.007 nM; as for B4, 0.033 nM; as for B5, 0.06 nM.
The same measure, in the same setting: as for B6, the figure is 0.05 nM; as for Ac-HAQGTFTSDK([γGlu-γGlu-C16])SKYLDERAAQDFVQWLLDT-NH2 [Co-agonist Peptide 7], 0.07 nM.
On to B7, for which the “GLPR1 EC50 (nM) human; cAMP production (HitHunter cAMP XS) in cells expressing human GLP-1R, 20% human serum” value was 0.02 nM.
